The assay deals with reconstituted elongation complex (EC): His-tagged E. coli RNAP core complex on template DNA, non-template DNA … (E. coli, Core RNAP assembled with biotinylated 49-mer template/non-template DNA and RNA primer (nucleic acid sequences in the supplement). The text gives only 'RNAP core complex' from pIA900; alpha2-beta-beta'). The assay is described as follows: SPR; BIAcore T200, SA chip; reconstituted EC on biotinylated 49-mer immobilised (550 RU after 1 M KCl wash); Mfd 0-640 nM flowed in SPR buffer (30 mM Tris/HCl pH 7.6, 40 mM KCl, 5 mM MgCl2, 0.005% P20, 0.25 mM EDTA, 0.5 mM DTT) with 0.5 mM ATPɣS; 20°C; 1:1 steady state affinity fit. The settings on record: both partners purified. A general note: SPR reads the build-up and loss of mass on a sensor chip optically.
Target sequence (A1AGI6 whole entry, chain 1 of 4): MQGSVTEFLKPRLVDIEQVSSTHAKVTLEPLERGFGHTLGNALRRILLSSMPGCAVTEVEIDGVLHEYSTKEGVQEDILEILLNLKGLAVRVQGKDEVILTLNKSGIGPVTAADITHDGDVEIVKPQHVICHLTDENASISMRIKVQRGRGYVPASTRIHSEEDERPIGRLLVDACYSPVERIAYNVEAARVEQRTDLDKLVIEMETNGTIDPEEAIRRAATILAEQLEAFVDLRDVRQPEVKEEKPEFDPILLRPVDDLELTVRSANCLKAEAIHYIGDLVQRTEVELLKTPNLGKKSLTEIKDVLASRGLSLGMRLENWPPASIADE
Target sequence (A1AIF9 whole entry, chain 2 of 4, further chain): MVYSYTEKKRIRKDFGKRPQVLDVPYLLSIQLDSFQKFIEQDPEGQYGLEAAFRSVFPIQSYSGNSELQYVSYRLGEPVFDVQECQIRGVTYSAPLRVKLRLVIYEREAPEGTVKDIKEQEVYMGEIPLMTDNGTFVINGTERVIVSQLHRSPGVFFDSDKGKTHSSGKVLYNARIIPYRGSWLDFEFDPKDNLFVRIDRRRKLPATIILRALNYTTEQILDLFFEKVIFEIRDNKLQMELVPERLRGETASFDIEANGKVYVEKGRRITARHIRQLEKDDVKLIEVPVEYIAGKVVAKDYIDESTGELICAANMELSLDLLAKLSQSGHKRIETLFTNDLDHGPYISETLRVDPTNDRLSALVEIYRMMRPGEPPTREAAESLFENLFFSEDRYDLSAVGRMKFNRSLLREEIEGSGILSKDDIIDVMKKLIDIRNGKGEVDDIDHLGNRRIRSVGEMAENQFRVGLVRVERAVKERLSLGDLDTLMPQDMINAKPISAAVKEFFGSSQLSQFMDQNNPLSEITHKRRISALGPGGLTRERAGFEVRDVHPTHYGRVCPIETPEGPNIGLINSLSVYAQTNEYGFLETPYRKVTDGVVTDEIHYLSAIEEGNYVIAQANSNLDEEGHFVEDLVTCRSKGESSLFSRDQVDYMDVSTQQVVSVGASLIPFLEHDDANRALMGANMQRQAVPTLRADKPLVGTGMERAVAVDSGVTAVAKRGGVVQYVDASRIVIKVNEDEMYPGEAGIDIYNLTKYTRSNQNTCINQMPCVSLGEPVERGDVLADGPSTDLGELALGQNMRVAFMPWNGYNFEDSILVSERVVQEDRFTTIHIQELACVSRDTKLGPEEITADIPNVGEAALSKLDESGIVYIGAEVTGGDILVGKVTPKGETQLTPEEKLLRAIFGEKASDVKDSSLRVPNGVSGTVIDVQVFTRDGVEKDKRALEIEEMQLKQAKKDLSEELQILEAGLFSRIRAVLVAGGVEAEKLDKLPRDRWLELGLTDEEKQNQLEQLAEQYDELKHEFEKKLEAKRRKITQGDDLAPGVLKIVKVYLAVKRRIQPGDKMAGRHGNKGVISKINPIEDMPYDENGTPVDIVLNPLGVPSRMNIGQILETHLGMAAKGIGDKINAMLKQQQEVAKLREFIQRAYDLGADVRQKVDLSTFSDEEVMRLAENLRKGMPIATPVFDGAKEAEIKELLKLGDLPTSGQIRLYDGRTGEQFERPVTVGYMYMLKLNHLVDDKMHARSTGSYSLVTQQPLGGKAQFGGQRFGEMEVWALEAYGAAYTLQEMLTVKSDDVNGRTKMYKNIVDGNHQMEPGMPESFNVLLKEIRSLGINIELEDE
Target sequence (A7ZUK2 whole entry, chain 3 of 4, further chain): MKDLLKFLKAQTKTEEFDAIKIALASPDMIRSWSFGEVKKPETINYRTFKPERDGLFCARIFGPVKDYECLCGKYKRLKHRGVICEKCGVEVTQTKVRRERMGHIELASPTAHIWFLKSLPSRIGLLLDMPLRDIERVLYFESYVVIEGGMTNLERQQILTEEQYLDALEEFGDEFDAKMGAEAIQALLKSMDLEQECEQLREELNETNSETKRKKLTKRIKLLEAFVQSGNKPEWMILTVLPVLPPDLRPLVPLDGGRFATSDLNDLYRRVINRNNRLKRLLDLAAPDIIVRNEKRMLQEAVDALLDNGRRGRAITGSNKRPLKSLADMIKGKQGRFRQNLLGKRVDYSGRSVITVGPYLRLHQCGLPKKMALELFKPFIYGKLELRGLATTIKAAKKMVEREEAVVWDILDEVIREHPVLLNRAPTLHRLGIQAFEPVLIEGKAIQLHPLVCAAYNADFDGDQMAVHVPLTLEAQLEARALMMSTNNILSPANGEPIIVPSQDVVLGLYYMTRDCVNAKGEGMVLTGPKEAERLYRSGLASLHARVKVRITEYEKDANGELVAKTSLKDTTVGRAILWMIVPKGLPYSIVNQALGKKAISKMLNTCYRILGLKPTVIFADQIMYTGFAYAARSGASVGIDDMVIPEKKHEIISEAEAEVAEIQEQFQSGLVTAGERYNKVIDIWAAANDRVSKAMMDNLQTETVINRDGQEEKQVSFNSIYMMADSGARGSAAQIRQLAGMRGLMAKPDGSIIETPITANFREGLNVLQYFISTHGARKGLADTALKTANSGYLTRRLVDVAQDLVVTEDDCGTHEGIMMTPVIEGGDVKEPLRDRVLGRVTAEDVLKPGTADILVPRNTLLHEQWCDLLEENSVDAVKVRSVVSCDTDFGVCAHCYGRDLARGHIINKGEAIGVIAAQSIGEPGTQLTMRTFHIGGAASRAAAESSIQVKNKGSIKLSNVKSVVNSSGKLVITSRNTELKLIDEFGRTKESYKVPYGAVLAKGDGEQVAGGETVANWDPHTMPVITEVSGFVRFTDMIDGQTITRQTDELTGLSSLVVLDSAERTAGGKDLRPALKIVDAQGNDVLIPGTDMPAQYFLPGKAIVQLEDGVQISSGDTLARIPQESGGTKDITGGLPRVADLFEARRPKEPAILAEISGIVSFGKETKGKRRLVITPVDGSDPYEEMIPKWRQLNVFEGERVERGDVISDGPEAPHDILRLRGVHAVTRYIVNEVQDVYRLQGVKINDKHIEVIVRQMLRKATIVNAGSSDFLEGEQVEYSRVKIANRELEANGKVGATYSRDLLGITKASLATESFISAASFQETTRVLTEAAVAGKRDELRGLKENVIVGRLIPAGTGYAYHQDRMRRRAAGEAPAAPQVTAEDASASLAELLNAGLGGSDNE
Target sequence (A1AHI0 2-91, chain 4 of 4, further chain): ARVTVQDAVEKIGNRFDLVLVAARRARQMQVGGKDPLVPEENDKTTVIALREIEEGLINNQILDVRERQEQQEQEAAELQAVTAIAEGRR

By Kd is commonly meant the concentration at which binding is half-saturated. Low readings indicate a tighter complex, high ones a looser complex.

B1: Mfd, the bacterial transcription-repair coupling factor (wild type) (natural protein, E. coli, UniProt P30958 1-1148, looked up)
chain: MPEQYRYTLPVKAGEQRLLGELTGAACATLVAEIAERHAGPVVLIAPDMQNALRLHDEISQFTDQMVMNLADWETLPYDSFSPHQDIISSRLSTLYQLPTMQRGVLIVPVNTLMQRVCPHSFLHGHALVMKKGQRLSRDALRTQLDSAGYRHVDQVMEHGEYATRGALLDLFPMGSELPYRLDFFDDEIDSLRVFDVDSQRTLEEVEAINLLPAHEFPTDKAAIELFRSQWRDTFEVKRDPEHIYQQVSKGTLPAGIEYWQPLFFSEPLPPLFSYFPANTLLVNTGDLETSAERFQADTLARFENRGVDPMRPLLPPQSLWLRVDELFSELKNWPRVQLKTEHLPTKAANANLGFQKLPDLAVQAQQKAPLDALRKFLETFDGPVVFSVESEGRREALGELLARIKIAPQRIMRLDEASDRGRYLMIGAAEHGFVDTVRNLALICESDLLGERVARRRQDSRRTINPDTLIRNLAELHIGQPVVHLEHGVGRYAGMTTLEAGGITGEYLMLTYANDAKLYVPVSSLHLISRYAGGAEENAPLHKLGGDAWSRARQKAAEKVRDVAAELLDIYAQRAAKEGFAFKHDREQYQLFCDSFPFETTPDQAQAINAVLSDMCQPLAMDRLVCGDVGFGKTEVAMRAAFLAVDNHKQVAVLVPTTLLAQQHYDNFRDRFANWPVRIEMISRFRSAKEQTQILAEVAEGKIDILIGTHKLLQSDVKFKDLGLLIVDEEHRFGVRHKERIKAMRANVDILTLTATPIPRTLNMAMSGMRDLSIIATPPARRLAVKTFVREYDSMVVREAILREILRGGQVYYLYNDVENIQKAAERLAELVPEARIAIGHGQMRERELERVMNDFHHQRFNVLVCTTIIETGIDIPTANTIIIERADHFGLAQLHQLRGRVGRSHHQAYAWLLTPHPKAMTTDAQKRLEAIASLEDLGAGFALATHDLEIRGAGELLGEEQSGSMETIGFSLYMELLENAVDALKAGREPSLEDLTSQQTEVELRMPSLLPDDFIPDVNTRLSFYKRIASAKTENELEEIKVELIDRFGLLPDPARTLLDIARLRQQAQKLGIRKLEGNEKGGVIEFAEKNHVNPAWLIGLLQKQPQHYRLDGPTRLKFIQDLSERKTRIEWVRQFMRELEENAIA
notes: Mfd (transcription-repair coupling factor), E. coli; mfd gene without ypet inserted in vector pSH1017, plasmid pHG4137; called full-length Mfd in the cryo-EM section; No tag is stated; purified by conventional chromatography; In the SPR it was flowed with 0.5 mM ATPɣS; also called TRCF; wildtype Mfd; source: E. coli BL21(λDE3)recA, purified (ammonium sulfate, DEAE, heparin Sepharose)
B1 registered a Kd of 127 ± 6 nM.

The values above are taken from PMC9177983, “Mechanism of transcription modulation by the transcription-repair coupling factor” (Nucleic Acids Research, 2021).
